# Laboratory results reported in the DeepSol protein solubility set.
# Experiment: soluble on expression in E. coli; label from the status in PepcDB or PDB records
row,Sequence,soluble on expression in E. coli
1,MSDADPKVPHRGHELLDVLARLGGSARNAQIAQVMDVSEETVRRLVKTLAKQGKVERVHGGTYLRGSQDAPMYSGALEQQPKEKTRIAKGVLELIRDGMTLFINVGSTTTYVAEQLRERRDLTIVTNSISTVASLADHNGSRVFLAGGEVSRSERGCFGRATEDFARRFAYDVLVIGADAMSPELGVLAANPREAELTRALLGNATRVIVAADYRKFSAIAPCIAAPLEAITDLVTDAAPPDALQDALDRCGVATHLAAKSGRITTRTPPPQDVGHSNTNRKTLSFPTEVSLEHHHHHH,soluble
2,MSLIMTTFIQLHLLTAYAPANLNRDESGRPKTAFMGGVERLRVSSQSLKRAWRVSETFEAAMDGFMGKRTRRIGVDYVYRPMKDAGIEEKIAKSSSELIAKQFGKLKSDKDAKPEKNLEIEQIVHVSNHEISLIKQLVDTLIADKREPNDEEVKLLRKEQRSVDMALFDRMLASSPEFNVEAACQVSHALGVSAVTVESDFFTAVDDLNNKEEDAGSGHMGEQGFASALFYTYVCISRDLLVENLGGNEELAKRTIAALTETALTVSPTGKQNSFASRAYATYALAEVGQKQPRSLAAAFFQPVRDTDQIPAAITRLKQQRASFDSVYGNCADDYRELNVQEGTGSLAELLAFVSQEGHHHHHH,soluble
3,MSSTECYGAPPHNYYQDWPTTHSYYPSVPSSYSPLNHHPADIWAAHPSNYIMGNGHVSPPATASGLSPPASRSSNSSAELPTGVTASQHNTYKWMHTKRSQRPAAPKKKVIDENGTNRTNFTTHQLTELEKEFHTAKYVNRTRRTEIASNLKLQEAQVKIWFQNRRMKEKKREKEKAFLARNTWESNSPTSSCSGEDVKNFK,not soluble
4,SMQELFNNLMELCKDSQRKFFYSDDVSASGRTYRIFSYNYASYSDWLLPDALECRGIMFEMDGEKPVRIASRPMEKFFNLNENPFTMNIDLNDVDYILTKEDGSLVSTYLDGDEILFKSKGSIKSEQALMANGILMNINHHRLRDRLKELAEDGFTANFEFVAPTNRIVLAYQEMKIILLNVRENETGEYISYDDIYKDATLRPYLVERYEIDSPKWIEEAKNAENIEGYVAVMKDGSHFKIKSDWYVSLHSTKSSLDNPEKLFKTIIDGASDDLKAMYADDEYSYRKIEAFETTYLKYLDRALFLVLDCHNKHCGKDRKTYAMEAQGVAKGAGMDHLFGIIMSLYQGYDSQEKVMCEIEQNFLKNYKKFIPEGY,soluble
5,MGSDKIHHHHHHQTQVIAHRGFWKTEGSAQNSIAALLKADSIGCYGSEFDVWLAADDQLVVNHDPTFKGKRMENSPSTALTAIKLDNGESLPTLAKYLKAAQPLHTRLILELKAHSTPLRETKAIEKIVALVKDMGLEERMEYITFSLHATKEFIRLAPEGTPVYYLDGNLSPKELKELGCAGPDYHYTVFRKHPEWIQECHDLGMKVNAWTVNKTDDMKWLIDRKVDFITTNEPVQLKNLLKK,not soluble
6,MADETPKVKTEPAAEVKSPLDEVKEIRKEAELTQTGSDEKKTTDPEFITVQDPNGDEPIELPTVDGVVLMTTLQASFPGATGLKYKNPKTGANRAVQVDPSGLKLIAPADGWENKTFFVIVAPQSERVRALSSADATSAKRRKVGSSDDSDSDDGRDGRSGRKRAVERDSQPVDLIVLGVDFKTTDECFQKYFEDIGTVVFCEIKRKSDGNSKGFGFVRMSSVGEQNKVLAIPQHMIDGRRCDVKVPDGRDKQGRPSISRIFVGRLTDKVDEHQLRKVFGDEAKSYIETAVVTDVFIPKPFRGFAFVTLSSAEAAERIVSKGSLTVNGLSVGLSIAQPREENNQSVGPDYGLPAGYRNRRERDRPDRRPIQNEAPLPMPFVRPPQDYSYRQQNSPLERRYWAPGDSRGPGW,not soluble
7,TNSAVVDVSFGFPSLVGFTFMSEMVHQFKMTFPKARVSMYEAQLSAFLPAIRDGRLDFAIGTLSDEMKLQDLHVEPLFESEFVLVANRARIGNGTVRLASLQHEQWVLPETNMGYYSELLTTLQRSGIRRENIVNTDSVVTIYNLVLNAD,not soluble
8,MKSAEIREAFLRFFEEKGHTRVASSSLIPANDPTLLFTNAGMNQFKDCFLGLEKRAYTRATTSQKCVRAGGKHNDLENVGYTARHHTFFEMLGNFSFGDYFKRDAIHYAWEFLTGEKWLNLPKEKLWVTVYATDDEAYDIWTKEVGVPAERMVRIGDNKGAPYASDNFWAMGDTGPCGPCTEIFFDHGPEIWGGPPGSPEEDGDRYIEIWNNVFMQFNRTADGVMHPLPAPSVDTGMGLERVSAVLQHVHSNYEIDLFQNLLKASAEAIGCANDDAPSLKVVADHIRSCSFLIADGVLPSNEGRGYVLRRIIRRACRHGNKLGARGTFFHKIVAALVAEMGDAFPELKQQQAHIERVLKTEEEQFAKTLEQGLKILEQDLAELQGSVIPGNVVFKLYDTYGFPVDLTNDIARERELTIDEDGFEREMEAQRERARASSAFGMDYNSLVKVDGETRFLGYQGVSGAGQIVALFRDGQAVERLEEGEEGVVVLDQTPFYAESGGQVGDSGYLEAAGVRFDVRDTTKAGGAHLHHGVVARGNLSVGGAVKAEVDASVRQATALNHSATHLLHAALRQVLGDHVQQKGSLVDSQRLRFDFSHFEAIKAEQLKALEDIVNAEIRRNTEVETEETDIDTAKAKGAMALFGEKYGDQVRVLSMGGDFSVELCGGTHVSRTGDIGLFKITSEGGVAAGVRRIEAVTGAAALAYLNGAEEQLKEAASLVKGSRDNLLDKLGALLERNRSLEKELEQLKAKAASAAGDDLSAAAVEIKGAKVLAARLDGLDGKALLALVDQLKNKLGRAVILLGGELDGKVVLVAGVTQDLTGQLKAGELMKQAAAAVGGKGGGRPDMAQGGGTDAAKLDEALALAQRF,not soluble
9,MPNFWALPPEINSTRIYLGPGSGPILAAAQGWNALASELEKTKVGLQSALDTLLESYRGQSSQALIQQTLPYVQWLTTTAEHAHKTAIQLTAAANAYEQARAAMVPPAMVRANRVQTTVLKAINWFGQFSTRIADKEADYEQMWFQDALVMENYWEAVQEAIQSTSHFEDPPEMADDYDEAWMLNTVFDYHNENAKEEVIHLVPDVNKERGPIELVTKVDKEGTIRLVYDGEPTFSYKEHPKF,not soluble
10,MVRGVFVGLFSKKQSVLVGVDISSTAVKLLQLSRSGNRFKVEHYAVEPLPLNAVAEKGIVEVEQVGEAIRRAVSRSGTKAKFAAAAVAGSAVITKLIPMPAGLDEQDLEAQIEIEATNYIPYPIEEVSLDFEVLGPVPNNTEMVQVLLAASRSENVELRQSALELGGLTAKVIDVEALAVENAFSLIAQELSVGSNALVALIDIGATMSTLNVLHSGRSLYAREQLFGGKQLTDEVMHRYGMTYEEAGQAKRQGGLPQSYEVEVLGPFKDSVIQQISRLLQFFYAGSEYNRVDCIVLAGGCAVIAGLPAMVEERLGVVTVVANPLAQMTLGAKVQAHTLAQDAPALMIATGLALRSFD,not soluble
11,MIDERDKIILEILEKDARTPFTEIAKKLGISETAVRKRVKALEEKGIIEGYTIKINPKKLGYSLVTITGVDTKPEKLFEVAEKLKEYDFVKELYLSSGDHMIMAVIWAKDGEDLAEIISNKIGKIEGVTKVCPAIILEKLK,soluble
12,MKLTDRWFTSISEDEKGNIVFVNGRLELDEFRLSGKLKIRIEIRWPYEADEQGLPTESAGKRIEEIELLIRKAMEKDKLAIMTGNYTGGGTKYWVYYARTERVFGERLNEVLAPYETLPLEIECEVDTDWEEYLDMLSMKDENSI,not soluble
13,MDSLQKTTMIDLLLRSDKRRKILLFLKEGPKNIEEITALLGSSCTAVLPQMKKLIEKGLVRQENKIYRLSTVGMIVTEKLVPLLGTIEVFENNLEYWAQKDLTGIPAFLRLKLEMLSQYEVIEPQLNRMFEPPEEFINSLKKSTEIMYFSSFFQPCFSGFDQDFLKKRTDSTFIFTKNFFERISSPHSEEYDELLLPERANLYVYDGISSLVSLTVTERFMALMLLNKKGKLDQNLLISSESEAIEWGKELFMYYREISKKIYGDKADRLLSEKIIPPGKKSGYGTGSDLLQISCLRKTKYKMAAALEHHHHHH,not soluble
14,MGSDKIHHHHHHMNTDARMGAGVSLKAEHYDQALACNLEGLWFEVHPENYMVGGPRLAWLNRIAERHPVSLHGVALSLAADAAPDQDHLQRLRALCDQIEPVLVYYHLAWSTWQGHYHPDLLPFPRSNEALQRIAENIQRCQEVLGRRISIENPSHYLQLQGHEWDEIDFLGELTRRTGCGLLLDINNVYVSAHNLGFSATAYLDRFPAQAITEVHLAGHSDDDQGSLLIDSHDAQVAEPVWALYRKLVSRVGPRPTLIERDDKLPPFTELLAERSIAQSIMTCPGVLP,not soluble
15,MGSDKIHHHHHHMTGLSQSQASPMQIQPGNAAFNPWTDAALDTIRDVNQALTLYAEMRVVPAHHDAFLAAIDTVSAKLRVLPGFLSLALKQMSGDSTMVKNYPETYKGVLATAYLDGVAAGTQPYFYNLFVRFADGRAARAAGFEALFETHIHPLLHAMAPRGGDGPELLAYRAVLQSVVAGDRHAIYRGAEEIRSFLRRPVELPERETVTVENHVMVPEDKHAAWEPQVAILLQVAQDTFEPQDEPSGVGLPGARDNRYYRKALSTEILRNAHADGGLRAYIMHGVWESVWDHENSHLDPRFLAAAGPVGAAAVVGPVEPFYLTRRLVVAD,not soluble
16,SNAMIYPDETMLYAPVEWHDCSEGYTDIRYEKSTDGIAKITINRPQVRNAFRPLTVKEMIQALADARYDDNVGVIILTGEGDKAFCAGGDQKVRGDYGGYQDDSGVHHLNVLDFQRQIRTCPKPVVAMVAGYSIGGGHVLHMMCDLTIAAENAIFGQTGPKVGSFDGGWGASYMARIVGQKKAREIWFLCRQYDAQQALDMGLVNTVVPLADLEKETVRWCREMLQNSPMALRCLKAALNADCDGQAGLQELAGNATMLFYMTEEGQEGRNAFNQKRQPDFSKFKRNP,soluble
17,MSEPLHALARQLEQAIRASEPFQQLKRAYEDVRRDETAYRMFANVRDIQLRLHEKQMRGAAILPDEIEQAQKAMALAQQNEKLARLMALEQQMSITIAEVQQIAMKPLEELHRSFMEGR,soluble
18,MGSDKIHHHHHHMEAAAQFFVESPDVVYGPEAIEAQYEYRTTRVSREGGVLKVHPTSTRFTFRTARQVPRLGVMLVGWGGNNGSTLTAAVLANRLRLSWPTRSGRKEANYYGSLTQAGTVSLGLDAEGQEVFVPFSAVLPMVAPNDLVFDGWDISSLNLAEAMRRAKVLDWGLQEQLWPHMEALRPRPSVYIPEFIAANQSARADNLIPGSRAQQLEQIRRDIRDFRSSAGLDKVIVLWTANTERFCEVIPGLNDTAENLLRTIELGLEVSPSTLFAVASILEGCAFLNGSPQNTLVPGALELAWQHRVFVGGDDFKSGQTKVKSVLVDFLIGSGLKTMSIVSYNHLGNNDGENLSAPLQFRSKEVSKSNVVDDMVQSNPVLYTPGEEPDHCVVIKYVPYVGDSKRALDEYTSELMLGGTNTLVLHNTCEDSLLAAPIMLDLALLTELCQRVSFCTDMDPEPQTFHPVLSLLSFLFKAPLVPPGSPVVNALFRQRSCIENILRACVGLPPQNHMLLEHKMERPGPSLKRVGPVAATYPMLNKKGPVPAATNGCTGDANGHLQ,not soluble
19,RRSRKLERKKIVLGVTGSIAAVETVKLARELVRRGADVTAVMSRAARKIIHPYALEFATGKRVVTEITGSIEHVNLLGEYGDADLFLIAPCTANTISKIAQGIDDTPVTTFATTALGSGKPIIIVPAMHEAMMRNKAVLENIQRLIDMGIEFVQPRIEEGKAKFPSTETICLHVERELYPKEMKGKRVV,not soluble
20,MGSDKIHHHHHHMDEIEKSLQNWGQQLENVHLPRWHELPDIELYMDQVITLIEKYLSPLITLEKHTLLTSSMVNNYVKHGLIPAPVKKRYNQKHLAFLIAITLLKQVLTLPEIKQGILFQGATVGIREAYNLFCQEQERAIYVIAAQAQEKEVQAKSQEPMGIEYLAVKAATMSFATKMFSEKVIELEQEYLKEMDEMTHE,not soluble
